In publication PMC3790011, “Transcription Factor Reb1p Regulates DGK1-encoded Diacylglycerol Kinase and Lipid Metabolism in Saccharomyces cerevisiae*”:

T1: Reb1p (His6-Reb1p) (Saccharomyces cerevisiae RS453, UniProt P21538 1-810)
T1 sequence: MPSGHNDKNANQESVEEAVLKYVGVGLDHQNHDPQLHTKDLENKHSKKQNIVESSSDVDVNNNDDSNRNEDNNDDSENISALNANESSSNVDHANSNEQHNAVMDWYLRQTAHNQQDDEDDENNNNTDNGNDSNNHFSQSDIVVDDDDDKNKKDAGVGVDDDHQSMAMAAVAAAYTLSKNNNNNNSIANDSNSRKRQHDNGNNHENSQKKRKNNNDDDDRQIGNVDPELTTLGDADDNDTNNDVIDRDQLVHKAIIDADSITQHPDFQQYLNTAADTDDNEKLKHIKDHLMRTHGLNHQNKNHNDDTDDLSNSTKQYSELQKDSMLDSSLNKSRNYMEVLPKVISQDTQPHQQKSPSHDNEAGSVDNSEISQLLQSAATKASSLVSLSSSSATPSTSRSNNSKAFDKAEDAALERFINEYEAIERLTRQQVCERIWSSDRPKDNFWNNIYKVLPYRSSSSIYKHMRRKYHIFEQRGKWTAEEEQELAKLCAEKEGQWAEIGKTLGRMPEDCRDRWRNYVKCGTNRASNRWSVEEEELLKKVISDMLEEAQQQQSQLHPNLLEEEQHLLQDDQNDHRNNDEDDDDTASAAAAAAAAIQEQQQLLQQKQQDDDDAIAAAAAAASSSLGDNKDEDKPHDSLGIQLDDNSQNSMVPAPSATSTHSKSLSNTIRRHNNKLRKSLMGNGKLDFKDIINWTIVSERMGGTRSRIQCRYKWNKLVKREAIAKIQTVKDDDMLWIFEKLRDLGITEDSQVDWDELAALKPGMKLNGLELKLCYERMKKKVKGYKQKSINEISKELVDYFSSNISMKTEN

B1: DGK1 promoter Reb1p site wild type (dsDNA)
DNA 1: AGGGTCCATAGCGGGTAACAAATTATTGG
DNA 2: CCAATAATTTGTTACCCGCTATGGACCCT
B2: unlabeled DGK1 wild type competitor (dsDNA)
DNA 1: AGGGTCCATAGCGGGTAACAAATTATTGG
DNA 2: CCAATAATTTGTTACCCGCTATGGACCCT

Legend:
Reb1p (His6-Reb1p) [1] = biological target: T1, Reb1p (His6-Reb1p); assay: EMSA; 10 mM Mg2+; 0.2-1.0 ug Reb1p, 4 pmol probe; 10 mM Tris-HCl pH 8.0, 10 mM MgCl2, 50 mM KCl, 1 mM DTT, 0.025 mg/ml poly(dI-dC), 0.2 mg/ml BSA, 0.04% IGEPAL CA-630, 10% glycerol; 15 min, room temperature; 5% PAGE in 0.5x TBE; conditions: protein: recombinant; tags: N-terminal His6 (pET-15b); label: 32P (alpha-32P dTTP, Klenow); blunt
Reb1p (His6-Reb1p) [2] = biological target: T1, Reb1p (His6-Reb1p); assay: competition; 10 mM Mg2+; 0.5 ug Reb1p, 4-16 pmol unlabeled competitor against 4 pmol labeled wild type probe; 10 mM Tris-HCl pH 8.0, 10 mM MgCl2, 50 mM KCl, 1 mM DTT, 0.025 mg/ml poly(dI-dC), 0.2 mg/ml BSA, 0.04% IGEPAL CA-630, 10% glycerol; 15 min, room temperature; 5% PAGE in 0.5x TBE; conditions: protein: recombinant; tags: N-terminal His6 (pET-15b); blunt

Row | Binder | binding result (Reb1p (His6-Reb1p) [1]) | binding result (Reb1p (His6-Reb1p) [2])
1 | B1 | binds | –
2 | B2 | – | binds
